Data taken from patent US20180201649A1 (YALE UNIVERSITY, published 2018).

T1: endothelial nitric oxide synthase (eNOS) (bovine (endogenous in BAEC), UniProt P29473 2-1205)
T1 sequence (looked up): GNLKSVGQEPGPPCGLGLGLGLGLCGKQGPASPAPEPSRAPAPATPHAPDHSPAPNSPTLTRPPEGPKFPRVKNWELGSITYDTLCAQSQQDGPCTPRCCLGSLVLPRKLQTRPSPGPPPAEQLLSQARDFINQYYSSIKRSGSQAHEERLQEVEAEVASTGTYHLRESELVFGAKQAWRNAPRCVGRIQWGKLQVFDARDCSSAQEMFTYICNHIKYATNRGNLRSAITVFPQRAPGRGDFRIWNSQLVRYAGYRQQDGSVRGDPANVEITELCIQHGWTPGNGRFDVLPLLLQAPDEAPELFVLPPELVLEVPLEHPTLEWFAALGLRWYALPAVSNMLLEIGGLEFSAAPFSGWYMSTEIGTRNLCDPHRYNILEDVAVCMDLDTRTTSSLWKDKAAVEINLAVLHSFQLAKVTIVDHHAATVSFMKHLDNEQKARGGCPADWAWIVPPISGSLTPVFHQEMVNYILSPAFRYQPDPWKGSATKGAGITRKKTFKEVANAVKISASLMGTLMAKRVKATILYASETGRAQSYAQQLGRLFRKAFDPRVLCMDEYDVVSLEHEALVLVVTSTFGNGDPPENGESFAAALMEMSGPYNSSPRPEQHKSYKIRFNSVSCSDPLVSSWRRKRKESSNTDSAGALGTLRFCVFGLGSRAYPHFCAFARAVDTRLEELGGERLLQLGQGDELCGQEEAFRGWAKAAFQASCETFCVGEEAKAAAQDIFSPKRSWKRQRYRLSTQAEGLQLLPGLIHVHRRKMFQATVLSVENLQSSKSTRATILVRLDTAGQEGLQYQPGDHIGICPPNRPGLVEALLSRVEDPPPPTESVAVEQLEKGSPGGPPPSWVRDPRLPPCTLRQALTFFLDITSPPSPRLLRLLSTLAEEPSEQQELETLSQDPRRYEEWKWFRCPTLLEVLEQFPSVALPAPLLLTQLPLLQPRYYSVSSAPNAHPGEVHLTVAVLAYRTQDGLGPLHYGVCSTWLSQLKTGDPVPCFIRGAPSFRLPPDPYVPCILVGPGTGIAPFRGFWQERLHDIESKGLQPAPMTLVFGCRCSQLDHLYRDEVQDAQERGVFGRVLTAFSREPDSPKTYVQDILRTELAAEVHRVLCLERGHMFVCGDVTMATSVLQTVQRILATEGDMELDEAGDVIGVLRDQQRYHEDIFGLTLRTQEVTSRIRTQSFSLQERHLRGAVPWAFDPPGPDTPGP


Biological target: T1, endothelial nitric oxide synthase (eNOS)
Assay: cell-based or functional assay

| Binder | EC50 of inhibition of VEGF-induced NO release in BAEC [µM] |
| --- | --- |
| RRPPRDGIWKASFTTFTVTKYWFYR [Endo5-Cav] | 7.5 |
| RQIKIWFQNRRMKWKKDGIWKASFTTFTVTKYWFYR [AP-Cav] | 1.8 |
